Results from patent US5705398A, “Methods for identifying inhibitors of LPS-mediated LBP binding” (The Scripps Research Institute, priority 1994, dated 1998).

T1: CD14 (Homo sapiens, UniProt P08571)
T1 construct: made in house; host or cells: CHO cells (clone 523, vector pEE14), secreted into culture medium
T1 sequence (P08571 20-375): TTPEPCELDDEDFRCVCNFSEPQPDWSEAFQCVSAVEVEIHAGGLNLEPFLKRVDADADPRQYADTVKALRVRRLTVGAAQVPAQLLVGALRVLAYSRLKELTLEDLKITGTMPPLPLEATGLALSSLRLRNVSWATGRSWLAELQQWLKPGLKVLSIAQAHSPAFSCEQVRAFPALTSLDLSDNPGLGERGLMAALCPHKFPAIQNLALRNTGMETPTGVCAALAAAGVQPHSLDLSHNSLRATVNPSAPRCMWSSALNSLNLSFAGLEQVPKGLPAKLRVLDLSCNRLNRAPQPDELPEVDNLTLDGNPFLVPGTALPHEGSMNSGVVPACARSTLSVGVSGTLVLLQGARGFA

T2: LPS-Binding Protein (LBP) (Oryctolagus cuniculus, UniProt P17454)
T2 construct: isolated from acute phase rabbit serum; from tissue; host or cells: acute phase rabbit serum
T2 sequence (P17454 27-482): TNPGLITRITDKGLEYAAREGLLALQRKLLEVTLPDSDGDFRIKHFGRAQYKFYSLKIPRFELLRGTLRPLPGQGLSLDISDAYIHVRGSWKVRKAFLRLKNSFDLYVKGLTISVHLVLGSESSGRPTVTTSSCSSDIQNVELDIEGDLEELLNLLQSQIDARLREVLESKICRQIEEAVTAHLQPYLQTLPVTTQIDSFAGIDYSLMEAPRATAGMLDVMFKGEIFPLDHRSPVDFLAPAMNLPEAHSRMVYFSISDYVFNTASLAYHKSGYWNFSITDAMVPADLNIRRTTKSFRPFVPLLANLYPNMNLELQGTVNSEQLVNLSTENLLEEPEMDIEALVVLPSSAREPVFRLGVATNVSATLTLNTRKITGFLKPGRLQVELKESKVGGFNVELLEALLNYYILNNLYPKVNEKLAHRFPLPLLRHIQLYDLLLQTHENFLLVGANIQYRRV

T3: recombinant human soluble CD14 (Homo sapiens, UniProt P08571)
T3 construct: made in house; host or cells: CHO cells (clone 523, vector pEE14), secreted into culture medium
T3 sequence (P08571 20-375): T1 sequence (P08571 20-375)

B1: LBP: LPS binding protein isolated from acute phase rabbit serum (protein, UniProt P17454 27-482, looked up)
Lipopolysaccharide-binding …: T2 sequence (P17454 27-482)

What was measured:
CD14 [1] = biological target: T1, CD14; experiment: Competition of non-fluoresceinated LPS with F-LPS in LBP/CD14 binding assay; conditions: similar to FIG. 3 with Re595 LPS
[2] = biological target: T2, LPS-Binding Protein (LBP); experiment: Fluorescence spectroscopy assay of F-LPS binding to LBP; design: species or system rabbit; conditions: for fluorescence intensity, +LBP (F-LPS+peptide+LBP): 10 ng/ml F-LPS + 1 mM polypeptide + 1 ug/ml rabbit LBP, no-peptide control 2700 (Experiment A, peptides 1-4), 2300 (Experiment B, peptides 5-8); for fluorescence intensity, +peptide (F-LPS+peptide): 10 ng/ml F-LPS + 1 mM polypeptide, before LBP; for fluorescence intensity, +F-LPS (F-LPS alone): 10 ng/ml F-LPS in PBS/2 mM EDTA pH 7.4, before peptide addition (baseline of the run); for inhibition of LPS binding to LBP (in words): 1 mM polypeptide, from Table 3
Protocol: The fluorescence spectroscopy assay method detects the intensity of fluorescence of fluoresceinated LPS in the presence of LBP.
The assay reaction admixture was prepared by admixing 10 ng/ml F-LPS and 1 ug/ml rabbit LBP into a solution of phosphate buffered saline (PBS) containing 2 mM EDTA, pH 7.4. The FI was then measured with an SLM 8000 photon counting spectrophotometer (SLM, Urbana, Ill.). A continuous FI output was measured over time while first the F-LPS was added to the PBS/EDTA solution, and then the LBP was added.
To study the effect of an LBP-derived polypeptide upon the effect of LBP on the FI of F-LPS, a polypeptide was added to the assay admixture at a concentration of 1 mM polypeptide prior to the addition of LBP, which was typically added about 30 to 150 seconds after the polypeptide was added to the admixture.

CD14 [3] = biological target: T1, CD14; experiment: Fluorescence spectroscopy assay of F-LPS binding to soluble CD14 in presence of LBP, with peptides; conditions: for fluorescence intensity, +CD14: 10 ug/ml soluble CD14 added before LBP, no-peptide control 1500; for fluorescence intensity, +LBP: F-LPS + polypeptide + 10 ug/ml sCD14 + 40 ng/ml rabbit LBP, no-peptide control 6300; for inhibition of fluorescence of F-LPS / LPS binding to LBP in presence of LBP and CD14 (in words): from Table 4
Protocol: (§1) The fluorescence spectroscopy assay method also detects the intensity of fluorescence of fluoresceinated LPS in the presence of LBP and soluble CD14.
(§2) The assay to measure binding interactions between CD14 and LPS or LPS-LBP complex was conducted essentially as described in Example 1 with the following exceptions. First, the amount of rabbit LBP in the reaction admixture was 40 ng/ml. Second, soluble CD14 (sCD14) prepared as described in Example 2A was added to the reaction admixture at a concentration of 10 ug/ml prior to addition of the LBP to the reaction admixture. Peptides 6, 7 and 8, whose sequences are shown in Table 2, were each separately added to assay reaction admixtures, and the resulting FI was measured.

Human CD14 = experiment: as above; conditions: for fluorescence intensity, +peptide (F-LPS+peptide): F-LPS + polypeptide, before CD14 and LBP; for fluorescence intensity, +F-LPS (F-LPS alone): before peptide addition (baseline of the run)
Protocol: as §1, §2

[4] = biological target: T3, recombinant human soluble CD14; experiment: F-LPS/CD14 fluorescence assay comparing LBP with other LPS-binding proteins; conditions: 20 ng/ml F-LPS; for effect on FI of F-LPS with CD14 when replacing LBP: protein 300 ng/ml, CD14 0 to 10 ug/ml
Protocol: For the assay, LBP or the other known LPS-binding proteins were added to the admixture at a concentration of 300 nanograms/milliliter (ng/ml) and were separately admixed with varying amounts the recombinant human soluble CD14 ranging in concentration from 0 to 10 micrograms/milliliter (ug/ml).
To this admixture, 20 ng/ml of F-LPS prepared in Example 1 were admixed to form a binding admixture. Fluorescence measurements were then performed as described above to determine the effect of LBP and CD14 on the FI of F-LPS.

Row | Molecule | fluorescence intensity, +LBP (F-LPS+peptide+LBP) [2] | fluorescence intensity, +peptide (F-LPS+peptide) [2] | fluorescence intensity, +F-LPS (F-LPS alone) [2] | inhibition of LPS binding to LBP (in words) [2] | other results
1 | lipid A [synthetic lipid A] |  |  |  |  | inhibition of FI increase by non-fluoresceinated LPS preparations (in words) (CD14 [1]): dose dependent inhibition
2 | CSSDIQNVELDIEGDLEELLNLLQSQIDARLREVLESKI [Peptide 3] | 2100 FIU | 1300 FIU | 800 FIU | weakly inhibit LPS binding to LBP | 
3 | ATLTLNTRKIT [Peptide 7] | 1300 FIU | 1600 FIU | 800 FIU | strongly inhibit LPS binding to LBP | fluorescence intensity, +CD14 (CD14 [3]): 2000 FIU; fluorescence intensity, +LBP (CD14 [3]): 1500 FIU; inhibition of fluorescence of F-LPS / LPS binding to LBP in presence of LBP and CD14 (in words) (CD14 [3]): strongly inhibit LPS binding to LBP; fluorescence intensity, +peptide (F-LPS+peptide) (Human CD14): 2400 FIU; fluorescence intensity, +F-LPS (F-LPS alone) (Human CD14): 1200 FIU
4 | LQPYLQTLPVTTQIDS [Peptide 4] | 2300 FIU | 900 FIU | 800 FIU |  | 
5 | GIDYSLMEAPRATA [Peptide 5] | 2000 FIU | 750 FIU | 750 FIU |  | 
6 | QTHENFLLVGANIQYRRV [Peptide 8] | 2300 FIU | 800 FIU | 700 FIU |  | fluorescence intensity, +CD14 (CD14 [3]): 1500 FIU; fluorescence intensity, +LBP (CD14 [3]): 5400 FIU; fluorescence intensity, +peptide (F-LPS+peptide) (Human CD14): 1400 FIU; fluorescence intensity, +F-LPS (F-LPS alone) (Human CD14): 1400 FIU
7 | TNPGLITRITDKGL [Peptide 1] | 2400 FIU | 900 FIU | 900 FIU |  | 
8 | apotransferrin |  |  |  |  | effect on FI of F-LPS with CD14 when replacing LBP [4]: no effect was detected
9 | KVRKAFLRLKNSFDL [Peptide 2] | 800 FIU | 800 FIU | 900 FIU | strongly inhibit LPS binding to LBP | 
10 | PSSAREPVFRLGVAT [Peptide 6] | 1500 FIU | 800 FIU | 750 FIU | strongly inhibit LPS binding to LBP | fluorescence intensity, +CD14 (CD14 [3]): 1300 FIU; fluorescence intensity, +LBP (CD14 [3]): 3500 FIU; inhibition of fluorescence of F-LPS / LPS binding to LBP in presence of LBP and CD14 (in words) (CD14 [3]): strongly inhibit LPS binding to LBP; fluorescence intensity, +peptide (F-LPS+peptide) (Human CD14): 1300 FIU; fluorescence intensity, +F-LPS (F-LPS alone) (Human CD14): 1200 FIU
11 | CCCCCCCCCCC[C@@H](O)CC(=O)N[C@H]1[C@H](OC[C@H]2O[C@H](OP(=O)(O)O)[C@H](NC(=O)C[C@H](O)CCCCCCCCCCC)[C@@H](OC(=O)C[C@H](O)CCCCCCCCCCC)[C@@H]2O)O[C@H](CO)[C@@H](OP(=O)(O)O)[C@@H]1OC(=O)C[C@H](O)CCCCCCCCCCC [lipid IVa] |  |  |  |  | inhibition of FI increase by non-fluoresceinated LPS preparations (in words) (CD14 [1]): dose dependent inhibition
12 | lysozyme |  |  |  |  | effect on FI of F-LPS with CD14 when replacing LBP [4]: no effect was detected
13 | B1 |  |  |  |  | maximum FI ([4]; LBP 300 ng/ml, plateau at CD14 about 10 ug/ml): greater than 90,000 fluorescence units
